From US20230047413A1 (Janssen / Centocor, published 2023)

Key:
[1] = target: T1, Peptide-2 (human, phosphothreonine 212, phosphothreonine 217 (tau 2N4R numbering); short chain biotin (SCBiot) and dPEG4 at the N-terminus; amide at the C-terminus); test: SPR ProteOn, peptide captured, Fab as analyte; Peptide-2 (pT212/pT217); peptide mapping run of Table 6, n=2
T1 construct: also called pT212/pT217-tau peptide (Peptide-2)
Method: (§1) The binding affinity of PT3 Fab towards each of the fourteen tau phosphopeptides shown in Table 6 was assessed by surface plasmon resonance (SPR) using a Bio-Rad ProteOn XPR36. Peptides were synthesized by standard chemical methods (New England Peptide) with short-chain biotin and a PEG4 moiety at the N-terminus. Biotinylated peptide was captured on a neutravidin-coated NLC biosensor chip and PT3 Fab was flowed over the surface to measure kinetic parameters.
(§2) All experiments were performed at 25° C. using phosphate buffered saline, pH 7.4, 0.005% Tween 20 (PBST) as both running buffer and sample dilution buffer. Prior to running samples, the NLC chip was conditioned by running PBST over the chip surface for 1 h. Approximately 5-10 RU of peptide was captured on the chip surface by diluting peptide to 10 ng/mL in PBST and injecting over the flow channels at 30 μL/min for 100 s. Serial dilutions of PT3 Fab (1.1-90 nM) were analyzed and, with the exception of Peptide-8, each concentration was measured in duplicate. After capture of peptides, the antibody titration was injected at 60 μL/min for 3 minutes (association phase), followed by 300 s of buffer only (dissociation phase).
(§3) The data were double referenced by subtraction of the interspot response and the curves generated by the buffer-only injection. […] The data were analyzed using a simple Langmuir 1:1 binding model.

[2] = target: Peptide-7 (human, phosphothreonine 212, phosphoserine 214 (tau 2N4R numbering); SCBiot and dPEG4 at the N-terminus; amide at the C-terminus); test: SPR ProteOn, peptide captured, Fab as analyte; range of n=2; Peptide-7 (pT212/pS214); lower end of n=2 range
Peptide-7 (human, phosphothreonine 212, phosphoserine 214 (tau 2N4R numbering); SCBiot and dPEG4 at the N-terminus; amide at the C-terminus), sequence (peptide, as listed by the source): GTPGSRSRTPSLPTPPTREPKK
Method: as §1, §2, §3

[3] = target: T2, tau phospho-peptide of the direct ELISA of Example 11; test: direct ELISA on plate-coated tau phospho-peptide, Fabs
T2 construct: also called pT217 peptide; pT212/pT217 peptide
Method: Binding to tau phospho-peptide was analysed by ELISA where peptide (10 ng/mL) was directly coated to the plate overnight. […] After incubation with antibodies, plates were washed and 50 μL per well of HRPO labelled anti-Fab antibody (Jackson Immunoresearch laboratories) (diluted 1:10000 in blocking buffer). After another washing step detection was performed with “One step” TMB (Thermo Scientific) according to the manufacturers' instructions. Plates were analysed in EnVision® 2102 Multilabel Reader (Perkin Elmer, Waltham, Mass., USA). Binding curves were generated using GraphPad Prism7.0 software.

[4] = target: Peptide-4 (human, phosphoserine 210, phosphothreonine 217 (tau 2N4R numbering); SCBiot and dPEG4 at the N-terminus; amide at the C-terminus); test: SPR ProteOn, peptide captured, Fab as analyte; range of n=2; lower end of n=2 range
Method: as §1, §2
(§4) The data were double referenced by subtraction of the interspot response and the curves generated by the buffer-only injection. The chip surface was regenerated using a single injection of 0.85% phosphoric acid at 30 μL/min for 100 s contact time, followed by four injections of running buffer before the next antibody titration injection. The data processing and kinetic analysis were done using the instrument software. The data were analyzed using a simple Langmuir 1:1 binding model.

[5] = target: Peptide-6 (human, phosphothreonine 217 (tau 2N4R numbering); SCBiot and dPEG4 at the N-terminus; amide at the C-terminus); test: as above
Method: as §1, §2, §4

[6] = target: Peptide-5 (human, phosphoserine 210, phosphoserine 214, phosphothreonine 217 (tau 2N4R numbering); SCBiot and dPEG4 at the N-terminus; amide at the C-terminus); test: as above
Method: as §1, §2, §4

[7] = target: T1, Peptide-2; test: as above
Method: as §1, §2, §4

[8] = target: T3, Peptide-1 (human, phosphothreonine 212, phosphoserine 214, phosphothreonine 217 (tau 2N4R numbering); short chain biotin (SCBiot) and dPEG4 at the N-terminus; amide at the C-terminus); test: SPR ProteOn, peptide captured, Fab as analyte; range of n=2; Peptide-1 (pT212/pS214/pT217); upper end of n=2 range
T3 construct: also called tau peptide phosphorylated at T212/S214/T217
Method: as §1, §2, §3

[9] = target: T3, Peptide-1; test: SPR ProteOn, peptide captured, Fab as analyte; Peptide-1, phosphorylated at 212/214/217
Method: as §1, §2, §3

[10] = target: T1, Peptide-2; test: SPR ProteOn, peptide captured, Fab as analyte; Peptide-2 (pT212/pT217); separate run of Table 12 (HFA Fab comparison), n=2
Method: A subset of HFA-PT3 monoclonal antibody variants, selected based on biophysical characterization and ELISA binding to PHF, were analyzed by Surface Plasmon Resonance (SPR) with a ProteOn XPR36 for binding to the following phosphopeptides: pT212/pT217-tau peptide (Peptide-2, SEQ ID NO: 48) and pT212-tau peptide (Peptide-8, SEQ ID NO: 54). All experiments were performed at 25° C. using PBST, pH 7.4, (Bio-Rad Cat#176-2720) as both running buffer and sample dilution buffer.
Fab/peptide binding. Biotinylated peptide was captured on a neutravidin-coated NLC biosensor chip pre-conditioned with PBST, and Fab was flowed over the surface to measure kinetic parameters. Approximately 5-10 RU of peptide was captured on the chip surface by diluting peptide to 10 ng/mL in PBST and injecting over the flow channels at 30 μL/min for 100 s. Serial dilutions of PT3 Fab (1.1 nM to 90 nM) were injected at 60 μL/min for 3 minutes (association phase), followed by 300 s of buffer only (dissociation phase).
Data were double referenced by subtraction of the interspot response, and the curves generated by the buffer only injection. The chip surface was regenerated with 0.85% phosphoric acid, followed by PBST injection before the next antibody titration injection. Data processing and analysis were performed using instrument software. The data were fit using a simple Langmuir 1:1 binding model.

B1: PT3 Fab (B187) (Fab, V domains shown)
VH: EVKLVESGGDLVKPGGSLKLSCAASGFTFSSYAMSWVRQNPEKRLEWVASISKGGNTYYPNSVKGRFTISRDNARNILYLQMSSLRSEDTALYYCARGWGDYGWFAYWGQVTLVTVSA
VL: DIKMTQSPSSMYASLGERVTITCKASQDINRYLNWFQQKPGKSPKTLIYRANRLLDGVPSRFSGSGSGQDYSLTISSLDYEDMGIYYCLQYDEFPLTFGDGTKLELK
notes: Chimeric Fab: mouse variable regions, human IgG1/kappa constant region, 6xHis tag at the C-terminus of the heavy chain; also called mouse parental Fab of PT3
Kd [1]: 0.27 nM
Kd [2]: 11.3 to 15.7 nM
EC50 (read off the curve) [3]: ~0.2 nM
koff [4]: 0.00619 s⁻¹
kon [4]: 922000 M⁻¹ s⁻¹
koff [5]: 0.00606 s⁻¹
kon [5]: 524000 M⁻¹ s⁻¹
koff [6]: 0.00569 s⁻¹
kon [6]: 545000 M⁻¹ s⁻¹
kon [7]: 546000 M⁻¹ s⁻¹
Kd [8]: 0.14 to 0.38 nM
Kd [9]: 0.26 nM
Kd [10]: 0.0874 nM
